Reference: publication PMC8617076, “Structure of HIV-1 Vpr in complex with the human nucleotide excision repair protein hHR23A” (Nature Communications, 2021)
Changes are numbered by the printed parent chain. In names and notes the source's numbering stands.

T1: GST-hHR23A, residues 1–363 (WT hHR23AFL) (human, UniProt P54725 1-363)
T1 construct: human hHR23A, full length, residues 1–363; also called GST-tagged WT hHR23A; source: recombinant
T1 sequence (looked up): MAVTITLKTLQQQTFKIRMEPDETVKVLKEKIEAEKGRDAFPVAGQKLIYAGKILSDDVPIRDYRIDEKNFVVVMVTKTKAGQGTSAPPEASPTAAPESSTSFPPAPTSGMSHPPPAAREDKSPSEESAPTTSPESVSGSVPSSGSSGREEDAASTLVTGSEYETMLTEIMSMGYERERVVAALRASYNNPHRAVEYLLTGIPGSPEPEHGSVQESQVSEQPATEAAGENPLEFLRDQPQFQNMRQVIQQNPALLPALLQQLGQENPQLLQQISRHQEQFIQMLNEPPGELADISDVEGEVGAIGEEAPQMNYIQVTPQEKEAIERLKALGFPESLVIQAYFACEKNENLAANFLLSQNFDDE

T2: GST-hHR23B, residues 1–409 (human, UniProt P54727 1-409)
T2 construct: human hHR23B, residues 1–409; source: recombinant
T2 sequence (looked up): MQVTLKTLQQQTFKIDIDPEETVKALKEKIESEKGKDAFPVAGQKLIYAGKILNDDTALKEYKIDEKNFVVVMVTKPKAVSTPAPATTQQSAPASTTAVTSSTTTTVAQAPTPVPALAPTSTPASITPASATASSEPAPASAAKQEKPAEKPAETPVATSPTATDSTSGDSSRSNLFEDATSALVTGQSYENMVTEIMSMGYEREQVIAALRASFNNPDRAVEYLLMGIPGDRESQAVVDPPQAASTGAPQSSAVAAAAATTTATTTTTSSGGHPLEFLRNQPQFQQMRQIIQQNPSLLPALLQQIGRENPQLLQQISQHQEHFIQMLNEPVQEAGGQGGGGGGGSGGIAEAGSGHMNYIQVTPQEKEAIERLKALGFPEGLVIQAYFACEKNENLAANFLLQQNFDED

T3: GST-hHR23B, residues 262–409 (human, UniProt P54727 262-409)
T3 construct: human hHR23B, residues 262–409; also called C-terminal half of hHR23B; source: recombinant
T3 sequence (looked up): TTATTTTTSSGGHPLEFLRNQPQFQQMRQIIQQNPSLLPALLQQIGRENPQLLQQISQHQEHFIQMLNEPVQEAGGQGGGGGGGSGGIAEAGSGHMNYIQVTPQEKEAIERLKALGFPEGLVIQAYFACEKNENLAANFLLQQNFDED

T4: Trx-hHR23AFL (human, UniProt P54725 1-363)
T4 construct: human hHR23A, full length (FL); source: E. coli Rosetta 2 (DE3) or Rosetta 2 (DE3) pLysS, purified (HisTrap, gel filtration)
T4 sequence (looked up): T1 sequence (looked up)

B1: recombinant VprFL (from NusA–VprFL) (natural protein)
chain: MEQAPEDQGPQREPYNEWTLELLEELKSEAVRHFPRIWLHNLGQHIYETYGDTWAGVEAIIRILQQLLFIHFRIGCRHSRIGVTRQRRARNGASRS
notes: HIV-1 Vpr, full length (FL); also called VprFL WT; source: recombinant NusA–VprFL
B2: recombinant VprFL H45A (natural protein)
chain: B1 chain with H45A
notes: HIV-1 Vpr, full length, with H45A; source: recombinant NusA–VprFL
B3: recombinant VprFL R73A (natural protein)
chain: B1 chain with R73A
notes: HIV-1 Vpr, full length, with R73A; source: recombinant NusA–VprFL
B4: recombinant VprFL L67A/I70A (natural protein)
chain: B1 chain with L67A, I70A
notes: HIV-1 Vpr, full length, with L67A and I70A; also called L67A/I70A double mutant; source: recombinant NusA–VprFL
B5: recombinant VprFL Y50S (natural protein)
chain: B1 chain with Y50S
notes: HIV-1 Vpr, full length, with Y50S; source: recombinant NusA–VprFL
B6: NusA–Vpr_(1–79) (domain or fragment)
chain: MEQAPEDQGPQREPYNEWTLELLEELKSEAVRHFPRIWLHNLGQHIYETYGDTWAGVEAIIRILQQLLFIHFRIGCRHS
notes: HIV-1 Vpr, residues 1-79; source: E. coli Rosetta 2 (DE3) or Rosetta 2 (DE3) pLysS, purified (HisTrap, gel filtration)

How the values were obtained:
Conditions in all cases: both partners purified
[1] = biological target: T1, GST-hHR23A, residues 1–363 (WT hHR23AFL); assay: pull-down; 1000 pmol GST-tagged hHR23A/B and 1000 pmol NusA–VprFL in 500 μl PBS, 30 min 4 °C; TEV cleavage overnight at 4 °C; Glutathion-Sepharose 4B beads; anti-His immunoblot
[2] = biological target: T2, GST-hHR23B, residues 1–409; assay: as above
[3] = biological target: T3, GST-hHR23B, residues 262–409; assay: as above
Trx-hHR23AFL = biological target: T4, Trx-hHR23AFL; assay: ITC; NusA–Vpr1–79 (8.5 µM) in the cell, Trx-hHR23AFL or DCAF1 1045–1396/DDB1 (100 μM) added in aliquots; 18 °C; 20 mM sodium phosphate pH 7.4, 100 mM NaCl
DCAF1_(1045–1396)/DDB1 = biological target: T5, DCAF1_(1045–1396)/DDB1 (UniProt Q9Y4B6 1045-1396; Q16531 1-1140); assay: as above
T5 construct: DCAF1, residues 1045-1396; DDB1
T5 sequence (Q9Y4B6 1045-1396, chain 1 of 2): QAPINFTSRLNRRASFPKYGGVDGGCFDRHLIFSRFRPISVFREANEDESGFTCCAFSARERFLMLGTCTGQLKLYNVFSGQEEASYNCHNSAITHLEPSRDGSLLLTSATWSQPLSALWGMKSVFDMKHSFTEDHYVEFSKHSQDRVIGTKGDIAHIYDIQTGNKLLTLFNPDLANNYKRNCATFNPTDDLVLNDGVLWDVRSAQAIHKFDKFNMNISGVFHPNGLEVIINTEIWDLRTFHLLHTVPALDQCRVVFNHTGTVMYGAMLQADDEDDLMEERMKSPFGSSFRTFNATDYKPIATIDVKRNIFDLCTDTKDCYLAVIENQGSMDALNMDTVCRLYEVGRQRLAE
T5 sequence (Q16531 whole entry, chain 2 of 2, the tested form may be a part): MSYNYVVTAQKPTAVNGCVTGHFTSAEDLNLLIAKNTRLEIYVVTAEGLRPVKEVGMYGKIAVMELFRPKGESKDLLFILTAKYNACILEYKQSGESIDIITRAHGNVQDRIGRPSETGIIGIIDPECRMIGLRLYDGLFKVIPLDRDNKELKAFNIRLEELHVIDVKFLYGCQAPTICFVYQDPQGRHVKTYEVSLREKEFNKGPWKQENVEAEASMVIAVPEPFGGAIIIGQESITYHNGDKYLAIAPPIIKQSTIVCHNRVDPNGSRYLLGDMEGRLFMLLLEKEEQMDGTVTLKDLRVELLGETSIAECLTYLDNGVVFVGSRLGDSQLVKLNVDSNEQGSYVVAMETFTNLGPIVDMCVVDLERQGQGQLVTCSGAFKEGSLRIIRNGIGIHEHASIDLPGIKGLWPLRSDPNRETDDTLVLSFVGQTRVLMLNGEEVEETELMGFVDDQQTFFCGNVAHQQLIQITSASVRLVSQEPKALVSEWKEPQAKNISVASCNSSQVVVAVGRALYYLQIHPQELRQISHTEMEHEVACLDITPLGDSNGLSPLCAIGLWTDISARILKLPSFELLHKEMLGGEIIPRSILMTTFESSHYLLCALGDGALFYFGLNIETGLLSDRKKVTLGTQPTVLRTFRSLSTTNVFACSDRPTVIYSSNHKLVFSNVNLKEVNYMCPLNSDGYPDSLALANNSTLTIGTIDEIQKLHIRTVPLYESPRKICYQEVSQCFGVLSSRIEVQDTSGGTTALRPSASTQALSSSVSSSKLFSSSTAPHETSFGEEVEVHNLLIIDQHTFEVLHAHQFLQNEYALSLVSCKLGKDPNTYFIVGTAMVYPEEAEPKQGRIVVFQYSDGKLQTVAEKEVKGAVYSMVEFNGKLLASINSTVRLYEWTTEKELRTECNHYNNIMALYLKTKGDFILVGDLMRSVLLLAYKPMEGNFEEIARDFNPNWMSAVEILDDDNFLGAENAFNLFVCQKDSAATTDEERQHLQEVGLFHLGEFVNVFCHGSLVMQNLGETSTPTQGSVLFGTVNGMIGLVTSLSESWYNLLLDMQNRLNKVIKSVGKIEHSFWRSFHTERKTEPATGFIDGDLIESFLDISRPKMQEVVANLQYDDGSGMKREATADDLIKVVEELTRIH

Row | Binder | binding result [1] | further results
1 | B1 | binds | binding result [2]: binds; binding result [3]: binds
2 | B2 | binds | –
3 | B3 | binds | –
4 | B4 | binds | –
5 | B5 | binds | –
6 | B6 | – | Kd (Trx-hHR23AFL): 640 ± 408 nM; Kd (DCAF1_(1045–1396)/DDB1): 116 ± 47 nM
